Source: patent US20150274826A1 (ARCH ONCOLOGY, published 2015)

Key:
mouse CD47 = molecular target: T1, mouse CD47 (mouse, UniProt Q61735 19-303); test: cell-based ELISA on mouse 4T1 cells, apparent Kd
T1 construct: whole, on cells; also called CD47 on mouse RBCs; CD47 on 4T1 cells
T1 sequence (looked up): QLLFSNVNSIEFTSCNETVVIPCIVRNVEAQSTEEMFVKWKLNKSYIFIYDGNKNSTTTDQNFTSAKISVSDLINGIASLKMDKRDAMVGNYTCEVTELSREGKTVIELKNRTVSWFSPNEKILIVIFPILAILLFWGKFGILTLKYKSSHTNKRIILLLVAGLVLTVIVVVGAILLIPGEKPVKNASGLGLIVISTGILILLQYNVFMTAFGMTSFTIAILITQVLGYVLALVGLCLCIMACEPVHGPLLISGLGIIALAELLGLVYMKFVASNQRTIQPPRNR
Protocol: (§1) OV10 cells are grown in IMDM medium containing 10% heat inactivated fetal bovine serum (BioWest; S01520) and 4T1 cells are grown in RMPI medium containing 10% heat inactivated fetal bovine serum (BioWest; S01520). One day before assay, 3×10⁴ cells are plated in 96 well cell bind plates (Corning #3300, VWR #66025-626) so that they are 95-100% confluent at the time of assay. Cells are washed and various concentrations of purified antibodies added in either IMDM or RPMI at 37° C. for 1 hour in […]. Cells are then washed with media and incubated for an additional hour at 37° C. with HRP labeled secondary anti-human antibody (Promega) diluted 1/2500 in media. Cells are washed three times with PBS, and the peroxidase substrate 3,3′,5,5′-tetramethylbenzidine is added (Sigma; Catalog #T4444). Reactions are terminated by the addition of HCl to 0.7N, and absorbance at 450 nm is determined using a Tecan model Infinite M200 plate reader. The apparent binding affinities of these clones to human and mouse cells is determined by non-linear fits (Prism GraphPad software). […] Agglutination of human RBCs is assessed following incubation of human RBCs with various concentrations of humanized blocking only clones. Blood is diluted (1:50) and washed 3 times with PBS/EDTA/BSA. RBCs are added to U-bottomed 96 well plates with equal volumes of the antibodies (75 μl) and incubated for 3 hrs at 37° C. and overnight at 4° C.

human CD47 [1] = molecular target: T2, human CD47 (human, UniProt Q08722 19-323); test: cell-based ELISA on human OV10 cells, apparent Kd
T2 construct: whole, on cells; also called CD47 on human RBCs; CD47 on OV10 cells
Protocol: as §1

human CD47 [2] = molecular target: T2, human CD47; test: flow cytometry on human RBCs, apparent Kd, non-linear fit
Protocol: (§2) RBCs are incubated for 60 minutes on ice with tissue culture supernatants containing the secreted humanized antibodies at a concentration of 10 ng/ml in a solution of phosphate buffered saline, pH 7.2, 2.5 mM EDTA (PBS+E), or with various concentrations of purified antibodies. Cells are then washed with cold PBS+E, and incubated for an additional hour on ice with FITC labeled donkey anti-human antibody (Jackson Immuno Research Labs, West Grove, Pa.; Catalogue #709-096-149) in PBS+E. Cells are then washed with PBS+E, and antibody binding is analyzed using a BD FACSAria Cell Sorter (Becton Dickinson) or a C6 Accuri Flow Cytometer (Becton Dickinson). Antibody binding is quantitated by comparison of mean fluorescence values relative to that of chimeric antibody >VxP037-01LC (SEQ ID NO:7))/>VxPO37-01HC (SEQ ID NO:57). The mean fluorescence value for each antibody is divided by the mean fluorescence value for the chimeric antibody.

human CD47 [3] = molecular target: T2, human CD47; test: flow cytometry on human RBCs, non-linear fit of median fluorescence
Protocol: as §2

T2 sequence (Q08722 19-323): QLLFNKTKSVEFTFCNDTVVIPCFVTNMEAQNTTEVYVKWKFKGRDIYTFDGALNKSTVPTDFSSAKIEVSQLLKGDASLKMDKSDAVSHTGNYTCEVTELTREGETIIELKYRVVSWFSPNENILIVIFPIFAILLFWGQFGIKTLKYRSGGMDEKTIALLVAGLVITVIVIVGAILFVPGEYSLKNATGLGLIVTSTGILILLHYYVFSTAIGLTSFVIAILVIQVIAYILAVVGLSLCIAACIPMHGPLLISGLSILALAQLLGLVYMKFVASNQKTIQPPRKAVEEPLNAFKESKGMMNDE

- Kd (mouse CD47): 86.7 pM
- Kd (human CD47 [1]): 88.6 pM
- Kd (human CD47 [2]): 1210 pM
- Kd (human CD47 [3]): 0.183 µg/mL
B1: Clone 13.1 (hum13 IgG1 N297Q) (antibody)
heavy: EVQLVQSGAEVKKPGESLRISCKGSGYTFTNYYVFWIRQSPSRGLEWLGDINPVNGDTNFNEKFKNRVTITADKSTSTAYMELSSLRSEDTAVYYCARGGYTMDYWGQGTLVTVSSASTKGPSVFPLAPSSKSTSGGTAALGCLVKDYFPEPVTVSWNSGALTSGVHTFPAVLQSSGLYSLSSVVTVPSSSLGTQTYICNVNHKPSNTKVDKKVEPKSCDKTHTCPPCPAPELLGGPSVFLFPPKPKDTLMISRTPEVTCVVVDVSHEDPEVKFNWYVDGVEVHNAKTKPREEQYQSTYRVVSVLTVLHQDWLNGKEYKCKVSNKALPAPIEKTISKAKGQPREPQVYTLPPSR
light: DIVMTQTPLSLPVTPGEPASISCRSSQSLVHSNGNTYLHWYQQKPGKAPKLLIYKVSYRFSGVPDRFSGSGSGTDFTLKISRVEAEDVGVYYCSQNTHVPRTFGQGTKVEIKRTVAAPSVFIFPPSDEQLKSGTASVVCLLNNFYPREAKVQWKVDNALQSGNSQESVTEQDSKDSTYSLSSTLTLSKADYEKHKVYACEVTHQGLSSPVTKSFNRGEC
notes: Fc mutant of Clone 13, IgG1 N297Q
